Source: patent publication US20200024330A1

Columns and labels:
Test in all cases: cell-based or functional assay
[1] = molecular target: HIV-1 93IN905 envelope protein (Env) on pseudotyped virus (HIV-1 isolate 93IN905)
[2] = molecular target: HIV-1 Env of isolate MGRM-A-014 (HIV-1)
[3] = molecular target: HIV-1 92TH021 envelope protein (Env) on pseudotyped virus (HIV-1 isolate 92TH021)
[4] = molecular target: HIV-1 Env of isolate MGRM-F1-012 (HIV-1)
[5] = molecular target: HIV-1 Env of isolate MGRM-A-005 (HIV-1)
[6] = molecular target: HIV-1 APV-6 envelope glycoprotein (Env) on pseudovirus (HIV-1)
[7] = molecular target: HIV-1 IAVI-C18 envelope glycoprotein (Env) on pseudovirus (HIV-1)
[8] = molecular target: HIV-1 Env of isolate MGRM-F1-010 (HIV-1)
[9] = molecular target: HIV-1 Env of isolate MGRM-D-026 (HIV-1)
[10] = molecular target: HIV-1 Env of isolate MGRM-F1-006 (HIV-1)
[11] = molecular target: HIV-1 Env of isolate MGRM-A-007 (HIV-1)
[12] = molecular target: HIV-1 NL43 envelope protein (Env) on pseudotyped virus (HIV-1 NL43)
[13] = molecular target: HIV-1 Env of isolate MGRM-A-013 (HIV-1)
[14] = molecular target: HIV-1 NL43 envelope glycoprotein (Env) (HIV-1)
[15] = molecular target: HIV-1 Env of isolate MGRM-F1-004 (HIV-1)
[16] = molecular target: HIV-1 Env of isolate MGRM-A-009 (HIV-1)
[17] = molecular target: HIV-1 Env of isolate VLGCA1 (HIV-1)
[18] = molecular target: HIV-1 93IN905 envelope glycoprotein (Env) (HIV-1)
[19] = molecular target: HIV-1 Env of isolate MGRM-A-004 (HIV-1)
[20] = molecular target: HIV-1 Env of isolate MGRM-A-001 (HIV-1)
[21] = molecular target: HIV-1 Env of isolate MGRM-A-006 (HIV-1)

For 1496_C09 (PG9) (TCN-109) (antibody), the IC50, pseudovirus neutralization, 1 hour Virus/Ab Incubation [1] was 0.144 mg/L, the IC50, pseudovirus neutralization, 18 hour Virus/Ab Incubation [1] was 0.0619 mg/L and the IC50 (µg/mL), pseudovirus neutralization [2] was 1.25 µg/mL. The IC50, pseudovirus neutralization, 1 hour Virus/Ab Incubation [3] was 0.0612 mg/L, the IC50, pseudovirus neutralization, 18 hour Virus/Ab Incubation [3] was 0.0571 mg/L and the IC50 (µg/mL), pseudovirus neutralization [4] was 0.023 µg/mL. For the same substance, the IC50 [5] was 0.75 mg/L, the IC90 (pseudovirus neutralization) [6] was 1.96 mg/L and the IC90 (pseudovirus neutralization) [7] was 0.866 mg/L. For the same substance, the IC50 (µg/mL), pseudovirus neutralization [8] was 0.012 µg/mL, the IC50 (µg/mL), pseudovirus neutralization [9] was 23.7 µg/mL and the IC50 (µg/mL), pseudovirus neutralization [10] was 7.25 µg/mL. The IC50 [11] was 1.06 mg/L, the IC50, pseudovirus neutralization, 1 hour Virus/Ab Incubation [12] was 0.294 mg/L and the IC50, pseudovirus neutralization, 18 hour Virus/Ab Incubation [12] was 38 mg/L. For the same substance, the IC50 (µg/mL), pseudovirus neutralization [13] was 0.122 µg/mL, the IC50 neutralization [14] was 0.687 mg/L and the IC50 (µg/mL), pseudovirus neutralization [15] was 0.175 µg/mL. For the same substance, the IC50 [16] was 0.023 mg/L, the IC50 (µg/mL), pseudovirus neutralization [17] was 0.069 µg/mL and the IC50 neutralization [18] was 0.048 mg/L.

Substance PGT-121 (antibody) has an IC50 (µg/mL), pseudovirus neutralization [2] of 0.003 µg/mL, an IC50 (µg/mL), pseudovirus neutralization [19] of over 50 µg/mL and an IC50 (µg/mL), pseudovirus neutralization [20] of over 50 µg/mL. It also gave an IC50 (µg/mL), pseudovirus neutralization [5] of over 50 µg/mL, an IC50 (µg/mL), pseudovirus neutralization [11] of over 50 µg/mL and an IC50 (µg/mL), pseudovirus neutralization [13] of 0.387 µg/mL. For the same substance, the IC50 neutralization [14] was over 10 mg/L, the IC50 (µg/mL), pseudovirus neutralization [21] was 0.396 µg/mL and the IC50 (µg/mL), pseudovirus neutralization [16] was 0.006 µg/mL. The IC50 (µg/mL), pseudovirus neutralization [17] was over 50 µg/mL and the IC50 neutralization [18] was 0.0082 mg/L.

In the case of PGT-122 (antibody), the IC50 (µg/mL), pseudovirus neutralization [2] is reported as 0.007 µg/mL, the IC50 (µg/mL), pseudovirus neutralization [19] is reported as over 50 µg/mL and the IC50 (µg/mL), pseudovirus neutralization [20] is reported as over 50 µg/mL. For the same substance, the IC50 (µg/mL), pseudovirus neutralization [5] was over 50 µg/mL, the IC50 (µg/mL), pseudovirus neutralization [11] was over 50 µg/mL and the IC50 (µg/mL), pseudovirus neutralization [13] was 2.47 µg/mL. The IC50 neutralization [14] was over 10 mg/L, the IC50 (µg/mL), pseudovirus neutralization [21] was over 50 µg/mL and the IC50 (µg/mL), pseudovirus neutralization [16] was 0.012 µg/mL. It also gave an IC50 (µg/mL), pseudovirus neutralization [17] of over 50 µg/mL and an IC50 neutralization [18] of 0.0138 mg/L.

PGV04 (antibody) was tested, and the IC50 (µg/mL), pseudovirus neutralization [2] was 0.172 µg/mL, the IC50 [19] was 0.175 mg/L and the IC50 [20] was 6.78 mg/L. It also gave an IC50 (µg/mL), pseudovirus neutralization [4] of 0.25 µg/mL, an IC50 [5] of 0.134 mg/L and an IC50 (µg/mL), pseudovirus neutralization [8] of 0.184 µg/mL. The IC50 (µg/mL), pseudovirus neutralization [9] was 1.76 µg/mL, the IC50 (µg/mL), pseudovirus neutralization [10] was over 50 µg/mL and the IC50 [11] was 7.21 mg/L. It also gave an IC50 (µg/mL), pseudovirus neutralization [13] of 0.086 µg/mL, an IC50 (µg/mL), pseudovirus neutralization [15] of 0.58 µg/mL and an IC50 [21] of 0.244 mg/L. For the same substance, the IC50 [16] was 0.033 mg/L and the IC50 (µg/mL), pseudovirus neutralization [17] was 0.024 µg/mL.
